In patent US20230226096A1 (Orna Therapeutics, Inc., priority 2020, published 2023) one finds Expression data, which are given here for 11 molecules.

The test system of this data set is HEK293 cells. It counts as cell-based, human. The note with it: luminescence from secreted Gluc in supernatant 24 hours after transfection of HEK293 cells; circular RNA encoding Gluc with the named IRES (UTR truncated to 675 nt).

B1: Mumps virus (nucleic acid, listed as Mumps orthorubulavirus)
DNA: ACCAAGGGGAAAATGAAGATGGGATGTTGGTAGAACAAATAGTGTAAGAAACAGTAAGCCCGGAAGTGGTGTTTTGCGATTTCGAGGCCGGGCTCGATCCTCACCTTTCATTGTCGATAGGGGACATTTTGACACTACCTGGAAA
Turning to B1, the Expression was 1.47E+05.

B2: Mouse Mosavirus (nucleic acid, listed as Mosavirus sp.)
DNA: GAAGTTGATCATGAACTTGGTTATTGGTGGAACGCACATGAACTCCCAACAATGATCTTGAAGACACAGCGTGGTAACAATTACCATGCCCTTGTGGCTGCCCAAGACATTGATGGCTATTGGGTGATTTATGATGAC
Consider B2, for which the Expression amounted to 9.00E+04.

B3: Megirivirus C (nucleic acid)
DNA: TTCCCGACCGGTCTGGCAAACCGGACGGTTATCCTGGTTAGATGTCTGATGGTTGCTGGAACGTGGTGGCTACTGCTGCCACCTTCTGGCTTCCTTTAATGGGCATCTAGCTGGGTTCTTTGCCACAATCCATCTTACTCTCTTACCCATTTTCTATTACCCAGACTTGTTGTTAACTGGTAAAGTTGACCTACTGGCTTCGTTTTGAGACTATTCTGGTGTTGGTGGACACTCTTTCCACAAGTAGATTGTATGGAGTTCATGCTCGTTTTGAACCGGGAATGGCACAACCCGTAGTAGGATCTTGCCTCTGCCATACTAATCTGCGCCTGTTGCTTTTAGACTATGGGCTGCTAAGGATGACATTGGAACCCCTTTTTGGATATTCCATGTCAAGTCAACTGTTTCATCTGGTGTACGCTGGAAATCCTTGTTCCGAGGTCTTGTCTGGAGGTGGTGCTGAAATATTGCAAGCCACAGGCAGTTCCTTGGACTTGGTGCCGCTATCAGATGCTACACCCTCTATGGGCAAATGTTGAACCTTAGTGGACGCGTGAGATGGGAATCCACGCCGGCCATAGACTGGCTGATAAGCTCGCGGCTGATCGAGTTGCAACAGTAATCAGTTGATTTGCCACT
B3: the Expression was 1.24E+05.

B4: Kagoshima-2-24-KoV (nucleic acid, listed as Kobuvirus sp.)
DNA: TATAGTTTGCCTGTTTCTCGCACCGTTACCGCTCGTTCGGGAATGTGAAACTGGCACCCCTCCTCTCCCCTACCACCCTTTCTCCTTCGCCCCCATTCATAATTTACAACGCCGCACACAGCGGCGGCCGCCAAGGGCTAGCCTGGCGGTTATAAAAGGAACCTGGGTCTTTCCCTCTTCAAGCCAAAAGGTAGGTTCCCTGTGTCCCTGAATGCTCGGTGAGGAATGCTGCACCGTAACGCTTTGTGAAGTGTTTGCAAGTTCTGGCCCGGCAAGCCTACAGAGTGCTGTGATCCGCTGCGGACGCCATCCTGGTAACAGGACCCCCAGTGTGCGCAACAGTATGTTCAGACTTCGGTTTGTTCACTTGCTTTCATGGACCATTGCGCGAAAGTGCGTGCGCCATATCCCTGTACTTCAGGTGTGCTTCTCTGGACCCTAGGAATGCTGCGAAGGTACCCCGTTTCGGCGGGATCTGATCGCAGGCTAATTGTCTATGGGTTCAGTTTCCTTTTTCTTTACTCCACAATTGACTGCTTAACTGACTCTGGATCTTGTGCTTCCACTGCTCTTTCTGCTCTCAAAACGGCTTCACTTACCAACTCTCACCTTTCGACCAACACCATTTACACACTAACTTTTTTCGACTCTTCTGACTCCTGGCTTGGTGAAGAC
With B4, the Expression turned out to be 9.30E+07.

B5: Linda virus (nucleic acid)
DNA: GTATAGCAGCAGTAGCTCAAGGCTGCTATACGATTGGACATACCAAATTCCAATTGGTGTTAGGGACCACCTAGGTGAAGGCCGACGACAGGTAGCCATTCCTGTTAGTAGGACGAACCGTTATGGTGGACTGGTTGCTCAGGTGAGCAGGCTGCAATGCGTAAGTGGTGAGTACACCACAGCCGTCAAAGGTGCCACTGGTAAGGATCACCCACTGGCGATGCCTTGTGGACGGGGGCGTGCCCAACGCAATGTTAGCGGTGGCGGGGGCTGCCATCGTGAAAGCTAGGTCTTGATGGACCTTGTTGCCTGTACAGTCTGATAGGATGCCGGCGGATGCCCTGTGACAGCCAGTATAAAGAATATCCGTTGTGATTGCAC
B5 had an Expression of 7.37E+05.

B6: Lesavirus 1 (nucleic acid)
DNA: GTAACTAATAAGCAAGTTTTACTGCCTGCAAACTGCTTCAATGGGACCACCGCTTCGGCGACCCCTTTGTTGAGTTTGTATGTTTTTAAGTAATCTTTGCAACCATACGATTATTTTAGCCGCCTCTCTATAATGATCTTGTTATAGTGGGACGTGAAACATTGGTTTTTCTCACACACGTCCGGTCACCCGGGCGTGTGTTCTTCCGTAAGTCCTATCCACATACCATCGTGGGTAGGCCAGCATGTTTGCACAGGCTGTGACAGTGTGGGTGGGCTTTCCACCTCTCAACAACACACTGAATTGCAATGCACTCACGGAGGAAATGACAATTTGGTTATAGTTTTGAACTGTGCTAGTAATTTCTTTCACATTAAGCCATGTTGCCTGCGGAATCACATGTGGTAACACATGCCTCAGGGCCCAAAAGGCACGGGTTAGCAGCCCCTTCATGGTGTGTTAGAAGTGAAAACACATAGTATGAGCTATAATATCTTTGTTGTCTTCTCTGTAGTGTACCCCGCCAAATGTAAGGATGCCCAGCAGGTACCCATTTTATGGATCTGAGCTGGGGATTGATAGTGTATCTATAAATGCACTGATCAATTTAAAAAGCGTCTAAGTTTGGCACAAACACTGGGGACAGTGTTTTTCCTTTATTCTTTTATTTGATTA
In the case of B6, the Expression is 6.37E+06.

B7: Harrier picornavirus 1 (nucleic acid)
DNA: GATGTGTGACGGTGTAATTACTTTCCGGATCCCACTTTCCTATTATAACTCTTTCATCCCAAGGTTAGGGAAAGAACCTGGCTCGGTACCACCAGACCCTCCGCCACGCTAGTGGACTCTCCGGAGATAACGGTACCCCCTTTGTAGTCACCTGTGCTGGTGAAGAACCACCTAGTATTGCTTGGGTGCGTGCCGCCTAGCTTCCATTTCTTCTGGAGCACTGTGCAATGAGGTTTCCCCACTTGGTAACAAGTGCCTCAGGTCCCGCAAGGATACTGTGGGGTGGTGTGACCGCAGGGAGCTGTCTCCACGGCTCCTCTAATGTTACGCCGCTATCCACAGGCCAGTGCGTGTCATCGATCCCGGATGACAGAGCTAGTATTGCGAACCCCCAAGTAAGAAAAGTGGCTAGTAACCTGATAGCTGGTGAAGAGGGTGGGTCAGTTGAGTAGATGCCCTAGAGGTACCCGAAAGGATCTGACTAGGGACCCGTGACTATACATTAGGTAAACCGGGTATAAAAACCATGAAAAACTGACCACTTTTCTTTTAACCTCTTCTTTCTTTTTATGTGTGTTAAGTGTTTTGAGTTTGGACTGTACCTTGCCCGCCTTTCTTGGATTTTCTCTATCGCTCTTCTTACACCTACTGTTATCAAGGCACTCTTTAGAGATA
As to B7, the Expression was found to be 1.47E+05.

B8: Jingmen picorna-like virus (nucleic acid)
DNA: TGTGTTTTTGTCAAGATAATTGTTCTGTGATTAACAGTGATTGTGGTTCGTGTAATGCGACGCAGTCAAATGCTAGTTTTGATGAAGTGTATGAGAGAGTGGAAAACTTATCTCATAAGAAGATTGAAGAGTGTGTAGATCAGGCTATTGATCGAGCTTCTAAGCTTCGTGATTACAAGCTTAATGTTCACAATGGCTCCCGACGGGAATCATCTGATCCTCTCTTTATTTCGCCCCATTCGTTGTTATCGCTTGGGGTATCTAAGTTTGTTGCGTTTGAGCAGCATCACAGTTTCGCTTCAGTTGAGTCTCTGAAGTTGCTTGCTCTGTCT
The molecule B8 displayed an Expression of 9.32E+04.

B9: Lesavirus 2 (nucleic acid)
DNA: TCTTTCTTTATTTTCTTATGTAACTCTTCTTTTTAAGTTTTATTTTGCCTACTTGTGAGCTTATGCGGGACCACTGTCTTAGACAACCCCACATTTGTCATGAGTAAGTACACGCAACCATTACGATTACTTTTTAACCGTCTGACCTTTTGATAACAACTGAAGTTAGGCGTGAAACATGCATTTATACCAAAGTAGCCCCGCATTTCCCCACTACGGTGGGGGGGCTACCCTACTGGCTTTGGAACTGTAGCCATTATGTGTTGCCTGGCTTTCAGGATCTCACAACACAACAGTTCTCTCACAATGGAATATGGGTGAGATTGCAGTGACATGAACAAGTATCTAGTAGTACATAGACTCAAGCCTAGTTGCCTGCGGAACAACATGTGGTAACACATGCCCCAGGGTCCAAAAGACAAGGGTTAACAGCCCCTTCTAGGTGTCTGTGTGTGAAGAATACTTTAGTAGTGTTGTTATGATCTCACCTGTTAGTACAGAATGAGTATGGCTTGGTGAAGGATGTCCTACAGGTACCCATTATATGGATCTGAGTAGGAGACCACTAGTGGTGGCTTTACCGCCAGGTGAGTGGTTTAAAAAGCGTCTAGCCAAGCCAACAGCACTAGGGATAGTGCTTTCTATATTTTATATTTTCAGTGTATATGGTGACAA
Molecule B9 returned an Expression of 3.67E+07.

B10: Miniopterus schreibersii picornavirus 1 (nucleic acid)
DNA: GTTGTCGACCCGTTGCTTGGTTTAAGCATGAGGTGGATTCCCCCGATTATGTCTACCCGTTACTATGGCGGGCGGTCGTTTCAGGGTGTTTCTACTGAGGACTGCACCAAGTCTTTATCTTTTATTCTCAGATCTCCGGCTGTTTGACGCTTGTAGGACAGCAGGACTATTTTCTCTTAATCTTTTTCTACCCACTAGGGTCCTATCCTAGTGGAGGGAGGGTGCCACCCCTTCTCTCTTTAGAGAGTGCGCCTGGCGGTCTTTCCGTCTCTGGAAAAAGGAGCACATGGCATGCTACAATTGGCACAAGAAAACAAGCTTTGCGGATTCTTTCTTTGTACTAGAGGAAGCTGTAGCGACCCTGTATGGCGAGCGGACTCCCCTCTCGGCGACGAGAGCCTCTCGGGCCAAAAGCCAAGTGTTAATAGCACCCATACAGGCGGCAGTACCCCACTGCCCTTTCTCAACATACAATGACTGATGAACCACTGTTGGTTTTTCTGACACCTTTGTAGTAGGATTCCAAGGAATGTCCTGAAGGTACCCTGTTAGCTTACGCGCAGGATCTGATCAGGAGTCTCTTTACAGTGCTGTACACTGTGCAAGGGATTAAAAATTGTTTGAGGAATCCCCGAGATAGTGGTCTATCTCTTCCTATTTTGTTTTACAGACACG
B10: the Expression is 6.05E+06.

B11: Kunsagivirus 1 (nucleic acid, listed as Kunsagivirus sp.)
DNA: TTTCAAATCGGACTCCGGTAGTTATACCGGAGCCCGGTTTGGACGCTTGGGCCGCGTTAACAGCCCCCCACCCCTTTCCCACTGACTGATTTCTCGGATTGGACTCATTTGCATTGCTAACTCTGATTCTGGATTTCCCCGTTTATGTCGTCGCGGTCGGAAGTGCACGTACTTCGACGTTGATCTGATGGCGTTTGTTTCCAGGGGGGAGGTGGCGGCAGAAACGCCCCCGCCGTAAACTTCGGCGGGCCACGCCTGTCAAGCCACTCCCTGGGGCCGAGCGCCTGAGGTGATACAGAGAGATAAGCACACTGGGCGCTGACAACGCCCGGGACCTCAGTGAGAAGAGCAGTAGGGCCGTGTTTATGGGACTCCATTGGATATCCCCCGCTTGTCGGAACTCACGGCTACTCCGGGTTGGGAAGCCCGCGACTGGTACTGTACTGGGTGATAGCCTGGTGCCTTCCCTCTCACTGTTGTATGAAGGCTGAAAACCCCCT
As for B11, the Expression is listed as 4.15E+05.
